Reference: the supplement of paper PMC12636428

Test system: Saccharomyces cerevisiae
Assay: transcriptional activation domain activity (GFP:mCherry ratio, weighted mean of sorted bins, harmonized to initial dataset scale) (arbitrary fluorescence ratio units); higher = stronger transcriptional activation
Conditions: beta-estradiol 1 µM; induction time 4 h
Outline: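 After a 1:5 dilution into SC with 1 uM beta-estradiol and 4 hours at 30 °C, yeast diploids carrying a GFP reporter and URA3-integrated barcoded tiles were sorted into 8 bins by GFP:mCherry ratio. The tiles were fused to an estradiol-inducible synthetic transcription factor. Barcodes were sequenced, tiles below 50 reads were discarded, and activation activity was taken as the read-weighted mean of bin median fluorescence, averaged across barcodes and linearly mapped onto the initial dataset scale.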

Row | Sequence | transcriptional activation domain activity
1 | LLGVGYAMVLAWFMCLFYLFPFLGALTLYFVMDVVDLASRTLYKLLHTLPILV | 52500
2 | LLGVLTLLLLYCNVVLITYHVPTWSRPLDIAFIHAPVRLFFILPLSLLFPYSL | 56100
3 | LLHAAGVHYGYGLLLLKCDILLRLLMFISFLLSSQFLLSVISPLLFFPSFVLM | 54700
4 | LLHILCFLMNLILTTLTLFVLLRDHLQLSCNVYTGLFFSCHTVSVAFSGVILL | 66200
5 | LLHLAISQLQAYLDRFRTRLNAVHALHLKRLILFLTALDQFTCARVAGMKVRS | 33700
6 | LLHPDKREPIDEDIWTVIPRGIRCEMMTFDLHIWLRRLVECLYKCLLENLVPT | 46600
7 | LLICSVVALVTCLAFLTNLTSMVPNFVLACLPLTAFLIFGTHSDLLRVWCFWW | 28700
8 | LLIFVLFYYNCMKILYGIFGFIILGVLGLFGYYISSMLLWLYNVPFDYISFFF | 68500
9 | LLIFYFLFSCICIHFQQHLGLPLYLFNQDWYYAWQALAKQYFGLLLITMTKWW | 53400
10 | LLILLLAFKKTSKEDPYEAIRLMSLAIGDQYAQGPDRFRLSCQWAVLARMISH | 38400
11 | LLILSLTVPFLHGLLRPHTHYVHLLVVVFLTFSPFFVILTISYEGLFYVIFCI | 57900
12 | LLIPTISFFFCATNCYVLTKDSQLDRGYIYWVLRCSAVHLMLSFFTLLFSLCF | 48100
13 | LLIQPLIQGFCYLMQFWISFFSSLFCFVTGDIPILLGILIPFYCLFFFHFFLF | 58700
14 | LLISDSQLGSYLLIGFVLENFICLFGLLVHSYLSLTRMDLGSFFFFAQITNRM | 40700
15 | LLIYGIVGFINLIKGEYLIVITGCKKIGSLVHNAEIYRATSFQILPVTHGLSS | 55300
16 | LLKAVQEDEGDDGVIVAYLDTLVPLLEDYLTSGPLGQFTLRLRLLLSFQVYAS | 53800
17 | LLKGLTLRNPAILKLEEDEDEAALLTQYAVKCSEVDKFLLTYVILKLKLIKGK | 33200

Row | Sequence | transcriptional activation domain activity
18 | LLKKCLKSSFGKSNEVTTYCLEFFGNVYRWSEMYWSSTWPVLLLVHALKSKQK | 52700
19 | LLKLKMATKTNDIALYEHFIDMSLRFLPFWNMIVSYYLCLLLLFNTTHIIFIL | 90500
20 | LLKNNILKWMCLVFRFVTRRVRFTYLTLPLATRCVGQGLVYIIRIIQDGHSYI | 43100
21 | LLKPNSCHFLLRNDIVFYKWTYYVAVIINVALRFAWTLNLANLSLNPQLLIFI | 56100
22 | LLKYAEWLIKPEQNNGSWVADVLWPVLNLDLQWISSHWNESSWDLWWPPIWGG | 32400
23 | LLLALLIADCGHLVSMRGLGVQVYWNIWEWNVFTAASVLLVYFYITLRICFLF | 53300
24 | LLLCGEICVACIVLYIHIVFFFGFFFFFLLGMIGLCLTFSNQLILFVYFLYFL | 43200
25 | LLLESEPLFRCTLPTIRDNISAYLSFLQIPNGNATEELPQWMPYILLIFEILL | 54400
26 | LLLFIHSLIHGTMLLFWRWPMLSILQVPMHPFLLLVCFNLFSQSVPPVLVSAA | 59500
27 | LLLFLFLRICFGLHVLATSAWFFYPSFLYGLSLITLPLFYGGVDPSVPWLFDG | 48900
28 | LLLFNDEYTHIWSTPSFALKWIYLFARYFPLLFQSTSYYLLTHILSRPPISWS | 61800
29 | LLLHVLIALRFWRFFGYSIGMVCGILLELVGYCGKVQLSHNRDNKDGYIIGLT | 50800
30 | LLLHYKHEEFVGHEETDFVVMGFTKLLLCCISSLKSFKKPLNAGPLIERIFRK | 84700
31 | LLLLIFAVFLRACDILSSQWLIWWTDGIVLGASHDLNFWKGWYMFIVWISLFF | 54800
32 | LLLLIWMVTRLVRTYTTIMFRCLGPPDHVAKMHRLLLGLSTCLQLSVYVLITS | 47300
33 | LLLLLDRFIDRNHLLDHIKIGTSDLLNLPGQRSIYISRLCRAICILGYNVNND | 30400
34 | LLLLLLYFFLFLFLFLFLCSQVLCLGQVDLVDLEKPFVFQSFFEIFPTLLFLP | 35100
